Experimental data from the Human Domainome abundance scans (Beltran et al. 2025).
± gives the uncertainty stated by the source.

B1: TOX high mobility group box family member 3, residues 256 to 323; numbered along this chain, O15405 (parent)
chain: QKPVSAYALFFRDTQAAIKGQNPNATFGEVSKIVASMWDSLGEEQKQVYKRKTEAAKKEYLKALAAYR

Variants of: B1
Assay: abundance fitness (aPCA) (normalised: wild type 0, dead -1); higher = more abundant; growth selection in yeast, the domain comes from the species named
Details: Homo sapiens

Abundance fitness: each site, then its substitutions
T53: A 0.136 ± 0.053 | F 0.157 ± 0.11 | L -0.09 ± 0.038 | P -0.326 ± 0.076 | S 0.113 ± 0.048 | D -0.022 ± 0.066 | E 0.257 ± 0.063 | C -0.092 ± 0.063 | G 0.073 ± 0.049 | M -0.046 ± 0.096 | K 0.001 ± 0.098 | R -0.111 ± 0.043 | H 0.12 ± 0.091 | N -0.104 ± 0.056 | W -0.152 ± 0.055 | Y 0.276 ± 0.094 | V 0.146 ± 0.047
E54: W -0.331 ± 0.067 | C -0.244 ± 0.084 | P -0.118 ± 0.055 | G -0.328 ± 0.046 | I -0.012 ± 0.082 | S -0.211 ± 0.052 | T -0.237 ± 0.064 | F -0.193 ± 0.072 | D -0.054 ± 0.068 | V -0.239 ± 0.053 | N -0.117 ± 0.07 | R -0.203 ± 0.048 | Q -0.158 ± 0.07 | L -0.102 ± 0.045 | M -0.161 ± 0.064
Y60: F 0.068 ± 0.29 | G -0.101 ± 0.091 | S 0.039 ± 0.057 | T 0.148 ± 0.059 | Q 0.128 ± 0.069 | W -0.258 ± 0.12 | A 0.043 ± 0.059 | R -0.129 ± 0.069 | I -0.556 ± 0.2 | V -0.073 ± 0.05 | K 0.128 ± 0.073 | E 0.08 ± 0.062 | P -0.052 ± 0.076 | N -0.236 ± 0.18
Q45: S -0.129 ± 0.061 | W -0.642 ± 0.095 | C -0.486 ± 0.087 | Y -0.373 ± 0.23 | F -0.339 ± 0.091 | L -0.433 ± 0.06 | R -0.059 ± 0.045 | P -0.546 ± 0.066 | N -0.232 ± 0.16 | V -0.278 ± 0.079 | I -0.479 ± 0.1 | H 0.098 ± 0.14 | K 0.037 ± 0.088 | E 0.092 ± 0.13 | D 0.132 ± 0.16 | A -0.154 ± 0.075 | T -0.114 ± 0.098 | M -0.431 ± 0.098 | G -0.17 ± 0.055
R51: K 0.05 ± 0.084 | Q -0.041 ± 0.058 | Y -0.199 ± 0.096 | N -0.017 ± 0.052 | E 0.222 ± 0.079 | P -0.225 ± 0.059 | W -0.079 ± 0.057 | G -0.032 ± 0.049 | M -0.069 ± 0.056 | D 0.101 ± 0.083 | A -0.031 ± 0.049 | I -0.175 ± 0.082 | H -0.018 ± 0.054 | T 0.042 ± 0.047 | V -0.072 ± 0.055 | S -0.02 ± 0.044 | L 0.021 ± 0.04 | F -0.256 ± 0.066
E43: K -0.218 ± 0.1 | I -0.339 ± 0.18 | N -0.374 ± 0.17 | M -0.255 ± 0.12 | Q -0.002 ± 0.07 | T -0.022 ± 0.06 | W -0.359 ± 0.07 | D -0.151 ± 0.12 | A -0.085 ± 0.054 | F -0.237 ± 0.079 | S -0.118 ± 0.051 | H -0.27 ± 0.13 | V -0.12 ± 0.059 | Y 0.076 ± 0.11 | C -0.165 ± 0.1 | P 0.058 ± 0.056 | R -0.274 ± 0.075 | G -0.43 ± 0.099
K50: S -0.181 ± 0.36 | A -0.15 ± 0.24 | R 0.079 ± 0.25
E59: V -0.3 ± 0.071 | A -0.122 ± 0.061 | Q -0.205 ± 0.067 | I -0.663 ± 0.33 | K 0.024 ± 0.084 | G -0.242 ± 0.071 | W -0.573 ± 0.085 | R -0.162 ± 0.053 | C -0.366 ± 0.15 | P -0.061 ± 0.085 | S -0.166 ± 0.068 | M -0.51 ± 0.16 | F -0.443 ± 0.14 | D 0.047 ± 0.11 | Y -0.577 ± 0.19 | T -0.083 ± 0.1 | N -0.246 ± 0.15 | L -0.39 ± 0.058 | H -0.744 ± 0.34
D39: Q 0.003 ± 0.088 | S 0.021 ± 0.045 | V -0.262 ± 0.071 | R -0.016 ± 0.05 | W -0.211 ± 0.074 | T -0.292 ± 0.092 | Y -0.231 ± 0.085
K57: D 0.025 ± 0.063 | L -0.346 ± 0.056 | V -0.252 ± 0.057 | M 0.036 ± 0.088 | P -0.165 ± 0.065 | G -0.125 ± 0.053 | F -0.23 ± 0.086 | C -0.275 ± 0.064 | S -0.052 ± 0.05 | R -0.164 ± 0.053 | Y -0.282 ± 0.091 | N 0.042 ± 0.077 | T -0.093 ± 0.063 | A -0.034 ± 0.069 | W -0.381 ± 0.11 | Q -0.021 ± 0.09
S40: Y -0.295 ± 0.094 | V -0.167 ± 0.058 | M -0.164 ± 0.078 | I 0.435 ± 0.11 | W -0.838 ± 0.15 | L -0.258 ± 0.055 | A 0.005 ± 0.062 | C -0.338 ± 0.15 | E 0.01 ± 0.042 | T 0.099 ± 0.061 | P -1.01 ± 0.16 | Q 0.003 ± 0.069 | H -0.092 ± 0.12 | R -0.004 ± 0.05 | G 0.009 ± 0.052 | D -0.223 ± 0.11 | N 0.005 ± 0.1
K62: C -0.3 ± 0.078 | D 0.019 ± 0.078 | A -0.022 ± 0.062
K46: Q -0.08 ± 0.083 | E -1.05 ± 0.19 | P -0.978 ± 0.19 | D -0.678 ± 0.13 | L -0.537 ± 0.058 | F -0.913 ± 0.19 | H -0.836 ± 0.24 | V -0.437 ± 0.054 | I -0.398 ± 0.1 | M -0.356 ± 0.086 | C -0.714 ± 0.18 | W -0.988 ± 0.24 | Y -0.529 ± 0.17 | T -0.395 ± 0.11 | G -0.8 ± 0.075 | S -0.811 ± 0.12
K52: M -0.373 ± 0.074 | F -0.93 ± 0.17 | D -0.404 ± 0.078 | G -0.474 ± 0.072 | Q -0.291 ± 0.071 | N -0.133 ± 0.067 | P -0.303 ± 0.079 | H -0.272 ± 0.066 | I -0.652 ± 0.081 | C -0.547 ± 0.086 | R 0.008 ± 0.042 | S -0.145 ± 0.04 | E -0.219 ± 0.07 | Y -0.28 ± 0.073 | W -0.617 ± 0.1 | V -0.584 ± 0.072 | T -0.426 ± 0.065 | A -0.368 ± 0.055
Q47: D 0.033 ± 0.12 | M -0.11 ± 0.089 | H -0.232 ± 0.1 | S -0.079 ± 0.054 | F -0.445 ± 0.14 | Y 0.029 ± 0.13 | R -0.032 ± 0.037 | P -0.812 ± 0.12 | C -0.195 ± 0.061 | I -0.498 ± 0.49 | K -0.048 ± 0.087 | E -0.052 ± 0.1 | V -0.033 ± 0.086 | A -0.101 ± 0.075 | G -0.103 ± 0.05 | L -0.211 ± 0.061 | T -0.42 ± 0.14 | N 0.102 ± 0.095
K58: Q 0.039 ± 0.072 | C -0.095 ± 0.075 | P -0.113 ± 0.064 | T -0.079 ± 0.059 | N -0.089 ± 0.088 | G -0.068 ± 0.051 | V 0.03 ± 0.061 | E 0.044 ± 0.097 | S -0.051 ± 0.066 | I -0.204 ± 0.13 | M -0.078 ± 0.066 | A 0.016 ± 0.045 | L -0.135 ± 0.057 | H -0.242 ± 0.15 | W -0.351 ± 0.083 | D -0.01 ± 0.094 | R -0.043 ± 0.049 | Y -0.279 ± 0.095
L61: I -0.029 ± 0.062 | C -0.014 ± 0.085 | G 0.08 ± 0.11 | D 0.319 ± 0.085 | W -0.19 ± 0.08 | V 0.119 ± 0.059 | T 0.135 ± 0.065 | R 0.015 ± 0.045 | F -0.213 ± 0.058 | K 0.247 ± 0.076 | H 0.134 ± 0.034 | S 0.22 ± 0.049 | N -0.068 ± 0.13 | E -0.064 ± 0.16 | Y -0.087 ± 0.099 | M -0.138 ± 0.059 | Q 0.146 ± 0.16
L41: D -0.847 ± 0.34 | K -0.931 ± 0.14 | I -0.187 ± 0.15 | M 0.09 ± 0.079 | P -0.724 ± 0.2 | Q -0.718 ± 0.2 | W -1.05 ± 0.14 | C -0.592 ± 0.11 | N -1.16 ± 0.46 | G -0.474 ± 0.07 | F -0.507 ± 0.15 | T -0.298 ± 0.13 | Y -0.902 ± 0.23 | H -0.766 ± 0.19 | E -0.922 ± 0.16 | A -0.225 ± 0.068 | V -0.29 ± 0.086
G42: M -0.613 ± 0.068 | W -0.858 ± 0.14 | C 0.04 ± 0.085 | R -0.275 ± 0.052 | F -1.05 ± 0.32 | V -0.59 ± 0.079 | D 0.067 ± 0.085 | S 0.086 ± 0.048 | N 0.108 ± 0.079 | Y -0.525 ± 0.15 | A -0.088 ± 0.052 | H -0.075 ± 0.11 | Q -0.153 ± 0.09 | K -0.037 ± 0.077
A56: L -0.109 ± 0.037 | Y -0.102 ± 0.17 | S -0.146 ± 0.052 | P -0.233 ± 0.086 | Q -0.017 ± 0.07 | M -0.063 ± 0.1 | R -0.201 ± 0.054 | F -0.548 ± 0.23 | W -0.463 ± 0.07 | K 0.17 ± 0.071 | I -0.167 ± 0.21 | C -0.104 ± 0.078 | G -0.017 ± 0.057 | E -0.007 ± 0.077 | V -0.054 ± 0.074
E44: D 0.069 ± 0.067 | G -0.17 ± 0.06 | Y -0.955 ± 0.25 | N -0.11 ± 0.13 | A -0.116 ± 0.051 | I -0.613 ± 0.19 | T -0.072 ± 0.076 | S -0.101 ± 0.05 | L -0.556 ± 0.062 | V -0.209 ± 0.046 | F -0.541 ± 0.061 | R -0.359 ± 0.07 | K 0.066 ± 0.099 | W -0.515 ± 0.073 | M -0.493 ± 0.096 | C 0.023 ± 0.18
A55: F -0.211 ± 0.077 | K 0.049 ± 0.057 | N 0.001 ± 0.063 | L -0.058 ± 0.041 | I -0.148 ± 0.09 | R -0.083 ± 0.046 | G -0.022 ± 0.051 | H 0.015 ± 0.053 | Y -0.276 ± 0.094 | S -0.029 ± 0.041 | P -0.157 ± 0.051 | Q -0.001 ± 0.077 | W -0.297 ± 0.058 | D -0.104 ± 0.07 | E 0.076 ± 0.059 | C -0.246 ± 0.095 | T -0.041 ± 0.064
V48: I -0.133 ± 0.19 | G 0.505 ± 0.26
